Data: patent publication US20260242478A1 (published 2026)

Columns and labels:
[1] = molecular target: T1, Anti-CD28 Fab (SEQ ID NOs: 696, 697); assay: phage ELISA; biotinylated anti-CD28 Fab on neutravidin plate, clonal phage supernatant, anti-M13 HRP
T1 construct: Biotinylated and captured on neutravidin coated plates in the phage ELISA
T1 sequence (VH, as listed by the source, chain 1 of 2): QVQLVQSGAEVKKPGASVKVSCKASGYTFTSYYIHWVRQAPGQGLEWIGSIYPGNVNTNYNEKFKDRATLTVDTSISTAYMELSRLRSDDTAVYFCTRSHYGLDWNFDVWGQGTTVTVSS
T1 sequence (VL, as listed by the source, chain 2 of 2): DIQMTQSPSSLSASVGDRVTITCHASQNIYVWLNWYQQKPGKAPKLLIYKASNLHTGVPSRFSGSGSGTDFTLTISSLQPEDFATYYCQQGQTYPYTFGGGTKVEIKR
Protocol: (§1) After panning, phage infected bacteria were plated out and colonies picked into 96 well blocks. Clonal phage was then amplified and separated from bacterial cells via centrifugation.
(§2) Clonal phage were harvested as crude supematants and screened via standard ELISAs. […] Prior to the addition of clonal phage, wells were incubated with blocking buffer and CD28 antigen or blocking buffer alone. Without washing or aspirating, clonal phage supematants were then added to the wells and incubated for a short time. Wells were then washed followed by detection of bound phage using a horse radish conjugated anti-M13 antibody. Clonal phage of interest were then sent for sequence analysis.

[2] = molecular target: T1, Anti-CD28 Fab (SEQ ID NOs: 696, 697); assay: phage ELISA; Fab-coated wells first incubated with CD28 antigen (competitor), then clonal phage, anti-M13 HRP
Protocol: as §1, §2

[3] = molecular target: Anti-CD28 Fab (SEQ ID NOs: 696, 697); assay: phage binding ELISA; captured Fab pre-incubated with CD28 antigen as competitor, anti-M13 HRP
Target sequence in this assay (VH, as listed by the source, chain 1 of 2): as the sequence (VH, as listed by the source, chain 1 of 2) above
Target sequence in this assay (VL, as listed by the source, chain 2 of 2): as the sequence (VL, as listed by the source, chain 2 of 2) above
Protocol: as §1, §2

[4] = molecular target: Anti-CD28 Fab (SEQ ID NOs: 696, 697); assay: phage binding ELISA; biotinylated Fab on neutravidin plate, clonal phage supernatant, anti-M13 HRP;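 note: clones picked after panning, added to wells pre-incubated with CD28 antigen or with blocking buffer only, no wash before phage addition, bound phage read after washing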
Target sequence in this assay (VH, as listed by the source, chain 1 of 2): as the sequence (VH, as listed by the source, chain 1 of 2) above
Target sequence in this assay (VL, as listed by the source, chain 2 of 2): as the sequence (VL, as listed by the source, chain 2 of 2) above
Protocol: as §1, §2

Row | Binder | Anti-CD28 Fab signal (phage binding ELISA) [1] | Anti-CD28 Fab signal in the presence of CD28 (phage binding ELISA) [2] | Anti-CD28 Fab signal in the presence of CD28 [3] | Anti-CD28 Fab (SEQ ID NOs: 696, 697) signal [4]
1 | YCDGHSAEYLGKCL [Phage-1242] | 0.92 | 0.07 |  | 
2 | YCAGHSAQYMWKCL [Phage-1240] | 0.92 | 0.07 |  | 
3 | YCDGHFTWYMAKCL (Tested as clonal phage supernatant) [Phage-1256] |  |  | 0.08 | 0.87
4 | YCVGHSPEYIWKCL [Phage-1243] | 0.92 | 0.06 |  | 
5 | YCDGHVLMYLAKCL (Tested as clonal phage supernatant) [Phage-1250] |  |  | 0.09 | 0.9
6 | YCEGHLAAYMYKCL (Tested as clonal phage supernatant) [Phage-1252] |  |  | 0.07 | 0.89
7 | YCEGHISEYMGKCL (Tested as clonal phage supernatant) [Phage-1255] |  |  | 0.05 | 0.88
8 | YCDGHIKEYMSKCL [Phage-1246] | 0.91 | 0.08 |  | 
9 | YCDGHIAEYRSKCL (Tested as clonal phage supernatant) [Phage-1257] |  |  | 0.07 | 0.87
10 | YCDGHSFEYMAKCL [Phage-1241] | 0.92 | 0.06 |  | 
11 | YCDGHHAEYMWKCL [Phage-1238] | 0.93 | 0.06 |  | 
12 | YCDGHTEAYMSKCL (Tested as clonal phage supernatant) [Phage-1254] |  |  | 0.06 | 0.88
13 | YCEGHSQEYKAKCF (Tested as clonal phage supernatant) [Phage-1249] |  |  | 0.07 | 0.9
14 | YCEGHDWMYMEKCL (Tested as clonal phage supernatant) [Phage-1248] |  |  | 0.07 | 0.91
15 | YCDGHLLMYMEKCL (Tested as clonal phage supernatant) [Phage-1247] |  |  | 0.06 | 0.91
16 | YCDGHELMYMEKCL [Phage-1244] | 0.92 | 0.06 |  | 
17 | YCEGHSSAYMAKCL (Tested as clonal phage supernatant) [Phage-1251] |  |  | 0.07 | 0.9
18 | YCAGHLEMYMSKCL [Phage-1245] | 0.91 | 0.07 |  | 
19 | YCDGHSTLYMQKCL (Tested as clonal phage supernatant) [Phage-1253] |  |  | 0.06 | 0.88
20 | YCEGHTQAYLAKCL [Phage-1239] | 0.93 | 0.1 |  | 
